Laboratory results published in patent US20110039770A1, “INHIBITORS OF PROTEIN KINASE C ISOFORMS AND USES THEREOF” (PHARMAGAP INC., priority 2005, published 2011).
Where a SMILES comes first, the peptide text is derived from it. [ ]: non-standard residue; d: D form.

Legend:
Assay in all cases: Competitive binding assay using cell extracts (Western blot)
Conditions in all cases: Cell extract; PRE 10X or 20X antibody concentration
PKC-βI = PKC-βI (Homo sapiens, UniProt P05771); parameters: PKC-βII by PRE 3 and PRE 4 in IMR-32 Neuroblastoma; endogenous in cells; host or cells: IMR-32 human neuroblastoma cells; key: —: no detectable affinity; Low to very low affinity at 10X or 20X or both PRE concentrations in at least one cell line in the cell extract assay; Low affinity in purified isoform assay.; Moderate affinity at 10X or 20X or both PRE concentrations in at least one cell line in the cell extract assay.; High affinity at 10X or 20X or both PRE concentrations in at least one cell line in the cell extract assay; High affinity in purified isoform assay
PKC-βI, sequence (P05771 whole entry, canonical isoform): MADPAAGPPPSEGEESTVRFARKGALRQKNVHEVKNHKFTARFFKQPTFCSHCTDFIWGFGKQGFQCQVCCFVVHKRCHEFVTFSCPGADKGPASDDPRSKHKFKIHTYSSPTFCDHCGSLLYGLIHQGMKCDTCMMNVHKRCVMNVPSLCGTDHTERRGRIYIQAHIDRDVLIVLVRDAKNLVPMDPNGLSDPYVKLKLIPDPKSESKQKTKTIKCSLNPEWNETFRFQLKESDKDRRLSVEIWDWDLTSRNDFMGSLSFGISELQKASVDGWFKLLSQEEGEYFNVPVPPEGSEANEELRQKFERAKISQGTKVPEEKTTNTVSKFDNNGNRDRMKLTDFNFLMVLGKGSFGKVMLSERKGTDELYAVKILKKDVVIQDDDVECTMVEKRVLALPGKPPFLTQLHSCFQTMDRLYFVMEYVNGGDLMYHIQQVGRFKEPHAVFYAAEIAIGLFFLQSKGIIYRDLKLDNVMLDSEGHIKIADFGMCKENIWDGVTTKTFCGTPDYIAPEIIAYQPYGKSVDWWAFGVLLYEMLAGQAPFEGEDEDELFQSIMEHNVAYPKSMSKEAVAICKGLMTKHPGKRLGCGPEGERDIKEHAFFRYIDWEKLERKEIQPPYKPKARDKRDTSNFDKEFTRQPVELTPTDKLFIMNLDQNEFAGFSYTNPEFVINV

PKC-ζ = biological target: T1, PKC-ζ (Homo sapiens, UniProt Q05513); parameters: cytoplasmic extracts from different cell lines expressing appropriate PKC isoforms; endogenous in cells; host or cells: H661, CCD16Lu, LnCAP, MDAMB231, Du145; key: —: no detectable affinity; Low to very low affinity at 10X or 20X or both PRE concentrations in at least one cell line in the cell extract assay; Low affinity in purified isoform assay.; Moderate affinity at 10X or 20X or both PRE concentrations in at least one cell line in the cell extract assay.; High affinity at 10X or 20X or both PRE concentrations in at least one cell line in the cell extract assay; High affinity in purified isoform assay
T1 sequence (Q05513 1-592): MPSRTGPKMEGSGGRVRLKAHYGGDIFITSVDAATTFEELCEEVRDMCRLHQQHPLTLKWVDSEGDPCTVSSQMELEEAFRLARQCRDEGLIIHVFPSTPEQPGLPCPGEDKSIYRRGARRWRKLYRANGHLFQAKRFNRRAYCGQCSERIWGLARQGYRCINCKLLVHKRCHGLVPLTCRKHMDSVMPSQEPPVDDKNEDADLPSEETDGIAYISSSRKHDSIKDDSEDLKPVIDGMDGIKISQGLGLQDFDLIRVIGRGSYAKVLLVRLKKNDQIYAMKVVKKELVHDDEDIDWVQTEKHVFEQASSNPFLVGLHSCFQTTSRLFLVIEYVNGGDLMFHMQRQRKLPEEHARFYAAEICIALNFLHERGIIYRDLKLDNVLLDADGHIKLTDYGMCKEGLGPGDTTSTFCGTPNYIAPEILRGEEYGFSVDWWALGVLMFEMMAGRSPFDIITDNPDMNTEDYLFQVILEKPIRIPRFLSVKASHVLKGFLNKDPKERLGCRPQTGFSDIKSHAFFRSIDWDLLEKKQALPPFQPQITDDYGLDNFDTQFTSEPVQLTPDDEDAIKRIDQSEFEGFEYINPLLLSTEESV
Experimental: (§1) Binding efficiency and specificity of the peptides PRE 2, 3, 4, 5, 6, 7, 8, 9, 10, 11, 12 and 13 (see Table 4) was also tested using cytoplasmic extracts from different cell lines expressing appropriate PKC isoforms as described for Example 1. Briefly, the protein cytoplasmic extracts were separated by electrophoresis and transferred onto nitrocellulose membranes by standard Western blotting procedures. The bands on the Western blots were detected with matching primary antibodies and alkaline phosphatase conjugated secondary antibody. The bands were then scanned and the relative density measurements obtained.
(§2) This procedure to assess the binding characteristics of the PREs is based on competition binding of the PRE with the primary anti-isoform PKC specific antibodies. The lower the measured band density, the greater the binding of the PRE to the PKC isoform. The PREs were added at 10 and 20 times (10×, 20×) the primary antibody concentration, according to classical competition between antigenic peptide and primary antibody. The following cell lines (obtained from the ATCC) were used: H661—NCI human lung carcinoma NSCLC; MDAMB231—human highly invasive breast cancer cell line from pleural effusion; LS180—human colon adenocarcinoma; LnCAP—human prostate adenocarcinoma; CCD16Lu—human lung fibroblasts; Du145—human prostate carcinoma brain metastasis, and T24—human bladder carcinoma.
(§3) In these cases, the 20× band density figures relative to control and 10× values were reliable.

PKC-βII = system: PKC-βII; parameters: species or system human; key: —: no detectable affinity; Low to very low affinity at 10X or 20X or both PRE concentrations in at least one cell line in the cell extract assay; Low affinity in purified isoform assay.; Moderate affinity at 10X or 20X or both PRE concentrations in at least one cell line in the cell extract assay.; High affinity at 10X or 20X or both PRE concentrations in at least one cell line in the cell extract assay; High affinity in purified isoform assay
Experimental: as §1, §2, §3

| Compound | Affinity for PKC isoform βI (PKC-βI) | Affinity for PKC isoform ζ (PKC-ζ) | Affinity for PKC isoform βII (PKC-βII) |
| --- | --- | --- | --- |
| Ac-ISIGILQNADK-NH2 (not fully specified; printed as Ac-ISIGILQNADK-NH2) [PRE 7] | — | — |  |
| RRKKGGKDFVVKR [PRE 1] | H | L |  |
| Ac-RDAQNLI-NH2 [PRE 13] | — | — |  |
| Ac-ISIGILNQADK-NH2 [PRE 10] | M | M/L | — |
| CC[C@H](C)[C@H](NC(=O)[C@H](CO)NC(=O)[C@@H](NC(=O)CNC(=O)[C@@H](NC(=O)[C@H](CC(C)C)NC(=O)[C@H](CC(N)=O)NC(=O)[C@H](CCC(N)=O)NC(=O)[C@H](C)NC(=O)[C@H](CC(=O)O)NC(=O)[C@H](CCCCN)NC(C)=O)[C@@H](C)CC)[C@@H](C)CC)C(N)=O [PRE 4, Ac-KDAQNLIGISI-NH2] (Ac-KDAQNLIGISI-NH2) | H | — | L |
| CC[C@H](C)[C@H](NC(=O)[C@H](CO)NC(=O)[C@@H](NC(=O)CNC(=O)[C@@H](NC(=O)[C@H](CC(C)C)NC(=O)[C@H](CC(N)=O)NC(=O)[C@H](CCC(N)=O)NC(=O)[C@H](C)NC(=O)[C@H](CC(=O)O)NC(=O)CNC(=O)CNC(=O)[C@H](CCCCN)NC(=O)[C@@H](NC(=O)[C@H](CCC(=O)O)NC(=O)[C@H](CCC(N)=O)NC(=O)[C@@H](NC(=O)CNC(=O)[C@H](CCCCN)NC(=O)[C@H](C)NC(C)=O)[C@@H](C)CC)C(C)C)[C@@H](C)CC)[C@@H](C)CC)C(N)=O [PRE 3] (Ac-AKGIQEVKGGDAQNLIGISI-NH2) | L | — | L |
| CC[C@H](C)[C@H](NC(=O)[C@H](CO)NC(=O)[C@@H](NC(=O)CNC(=O)[C@@H](NC(=O)[C@H](CC(C)C)NC(=O)[C@H](CC(N)=O)NC(=O)[C@H](CCC(N)=O)NC(=O)[C@H](C)NC(=O)[C@H](CC(=O)O)NC(=O)[C@H](CCCCN)NC(=O)CNC(=O)CNC(=O)[C@H](CCCCN)NC(=O)[C@@H](NC(=O)[C@H](CCC(=O)O)NC(=O)[C@H](CCC(N)=O)NC(=O)[C@@H](NC(=O)CNC(=O)[C@H](CCCCN)NC(=O)[C@H](C)NC(C)=O)[C@@H](C)CC)C(C)C)[C@@H](C)CC)[C@@H](C)CC)C(N)=O [PRE 5] (Ac-AKGIQEVKGGKDAQNLIGISI-NH2) | H | L/H | H |
| Ac-isigilqnadk-NH2 (Ac-[dI][dS][dI]G[dI][dL][dQ][dN][dA][dD][dK]-NH2; SMILES CC[C@@H](C)[C@@H](NC(C)=O)C(=O)N[C@H](CO)C(=O)N[C@@H](C(=O)NCC(=O)N[C@@H](C(=O)N[C@H](CC(C)C)C(=O)N[C@H](CCC(N)=O)C(=O)N[C@H](CC(N)=O)C(=O)N[C@H](C)C(=O)N[C@H](CC(=O)O)C(=O)N[C@H](CCCCN)C(N)=O)[C@H](C)CC)[C@H](C)CC) [PRE 9] | M | M/L | — |
| ILEDKGGDAQNLIGISI [PRE 8] |  |  | H |
| Ac-RDAQNLIGISI-NH2 [PRE 11] | H | — |  |
| Ac-KDANQLIGISI-NH2 [PRE 6] | H | — |  |
| Ac-KDAQNLI-NH2 [PRE 12] | — | M/H | L |
